# According to US20210253718A1, “FRIZZLED5 PROTEIN-BINDING AGENTS” (Modmab Therapeutics Corporation, priority 2016, published 2021):
# T1: FZD5 CRD (Homo sapiens, UniProt Q13467)
# T1 construct: K29-T156; GPI anchor signal (C); expressed in transfected cells; host or cells: CHO cells, lentiviral pLenti-puro
# T1 sequence (Q13467 29-156): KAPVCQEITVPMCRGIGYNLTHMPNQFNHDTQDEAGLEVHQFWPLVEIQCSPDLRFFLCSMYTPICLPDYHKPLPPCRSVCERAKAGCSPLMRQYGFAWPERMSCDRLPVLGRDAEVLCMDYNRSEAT
# T2: FZD6 CRD (Homo sapiens, UniProt O60353)
# T2 construct: S20-P146; GPI anchor signal (C); expressed in transfected cells; host or cells: CHO cells, lentiviral pLenti-puro
# T2 sequence (O60353 20-146): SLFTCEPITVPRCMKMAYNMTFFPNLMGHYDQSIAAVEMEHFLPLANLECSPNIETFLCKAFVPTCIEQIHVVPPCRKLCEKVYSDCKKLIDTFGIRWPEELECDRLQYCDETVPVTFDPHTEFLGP
# T3: FZD3 CRD (Homo sapiens, UniProt Q9NPG1)
# T3 construct: CRD of FZD1, FZD2, FZD3, FZD4, FZD5, FZD6, FZD7, FZD8, FZD9 or FZD10; GPI anchor signal (C); expressed in transfected cells; host or cells: CHO cells, lentiviral pLenti-puro
# T3 sequence (Q9NPG1 23-136 limits assumed): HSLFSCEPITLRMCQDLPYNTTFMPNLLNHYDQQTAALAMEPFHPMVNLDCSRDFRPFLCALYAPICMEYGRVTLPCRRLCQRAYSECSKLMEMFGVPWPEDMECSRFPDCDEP
# T4: FZD4 CRD (Homo sapiens, UniProt Q9ULV1)
# T4 construct: E42-V167; GPI anchor signal (C); expressed in transfected cells; host or cells: CHO cells, lentiviral pLenti-puro
# T4 sequence (Q9ULV1 42-167): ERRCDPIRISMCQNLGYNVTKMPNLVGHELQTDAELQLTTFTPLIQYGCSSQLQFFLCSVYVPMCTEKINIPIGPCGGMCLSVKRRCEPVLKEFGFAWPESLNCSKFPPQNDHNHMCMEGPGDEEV
# B1: Fab-2898: anti-FZD5 Fab with antibody variable region Fv-2898; CDR SEQ ID NOs: 35, 36, 37, 76, 113, 152 (antibody, V domains shown)
# VH: EVQLVESGGGLVQPGGSLRLSCAASGFNIYSYSMHWVRQAPGKGLEWVASIYSSSGSTSYADSVKGRFTISADTSKNTAYLQMNSLRAEDTAVYYCARAVWGLDYWGQGTLVTVSS
# VL: DIQMTQSPSSLSASVGDRVTITCRASQSVSSAVAWYQQKPGKAPKLLIYSASSLYSGVPSRFSGSRSGTDFTLTISSLQPEDFATYYCQQWWGYYSLITFGQGTKVEIK
# B2: Fab-2899: anti-FZD5 Fab with antibody variable region Fv-2899; CDR SEQ ID NOs: 35, 36, 38, 77, 114, 153 (antibody, V domains shown)
# VH: EVQLVESGGGLVQPGGSLRLSCAASGFNLYYYYMHWVRQAPGKGLEWVASIYPSSGSTSYADSVKGRFTISADTSKNTAYLQMNSLRAEDTAVYYCARGALDYWGQGTLVTVSS
# VL: DIQMTQSPSSLSASVGDRVTITCRASQSVSSAVAWYQQKPGKAPKLLIYSASSLYSGVPSRFSGSRSGTDFTLTISSLQPEDFATYYCQQWYSSYGLITFGQGTKVEIK
# B3: Fab-2905: anti-FZD5 Fab with antibody variable region Fv-2905; CDR SEQ ID NOs: 35, 36, 44, 83, 120, 157 (antibody, V domains shown)
# VH: EVQLVESGGGLVQPGGSLRLSCAASGFNLSYYYMHWVRQAPGKGLEWVASIYSSYSYTSYADSVKGRFTISADTSKNTAYLQMNSLRAEDTAVYYCARSGYALDYWGQGTLVTVSS
# VL: DIQMTQSPSSLSASVGDRVTITCRASQSVSSAVAWYQQKPGKAPKLLIYSASSLYSGVPSRFSGSRSGTDFTLTISSLQPEDFATYYCQQSSWYYGYPFTFGQGTKVEIK
# Key:
# RWP1 cells [1] = experiment: Effect of anti-FZD5 Fabs on proliferation of pancreatic cancer cell lines (percent growth inhibition); assay type: cell-based, human; conditions: Fab 10 μg/ml
# Description: (§1) The effect of presently disclosed anti-FZD5 Fabs on proliferation of RNF43 loss-of-function mutant pancreatic cancer cell lines HPAFII, PATU8988S and ASPC-1; and on pancreatic cancer cell line RWP1, was tested at […] and 10 μg/ml.
# PATU8988S cells = experiment: as above; assay type: cell-based, human; conditions: Fab 10 μg/ml
# Description: as §1
# HPAFII cells = experiment: as above; assay type: cell-based, human; conditions: for percent growth inhibition, HPAFII 2 μg/ml: Fab 2 μg/ml; for percent growth inhibition, HPAFII 10 μg/ml: Fab 10 μg/ml
# Description: as §1
# ASPC-1 cells [2] = experiment: as above; assay type: cell-based, human; conditions: Fab 10 μg/ml
# Description: as §1
# RWP1 cells [3] = experiment: as above; assay type: cell-based, human; conditions: Fab 2 μg/ml
# ASPC-1 cells [4] = experiment: as above; assay type: cell-based, human; conditions: Fab 2 μg/ml
# FZD1 CRD = molecular target: T5, FZD1 CRD (Homo sapiens, UniProt Q9UP38); experiment: Immunofluorescence of anti-FZD5 Fab binding to CHO cells overexpressing Frizzled CRD; parameters: key: −: no binding; +: very weak binder; ++: weak binder; +++: good binder; ++++: very good binder
# T5 construct: D112-P238; GPI anchor signal (C); expressed in transfected cells; host or cells: CHO cells, lentiviral pLenti-puro
# Description: (§2) Plasmids: pLCKO lentiviral vector used for knockout (TKO) library construction and expression of individual gRNAs was constructed as described previously (Hart et al., 2015). Briefly, single guide RNA (sgRNA) scaffold was amplified from px330 (Addgene 42230) and cloned into pLKO.TRC005 lentiviral vector (Broad Institute, Cambridge, Mass.) using AgeI/EcoRI restriction sites. BfuAI sites were added at the 5′ end of the sgRNA scaffold for cloning the TKO library or individual gRNA target sequences. Lenti Cas9-2A-BsdR vector used to generate Cas9 stable expression cell lines was constructed as described previously (Hart et al., 2015). Briefly, lentiCRISPR pXPR_001 (Addgene 49535) was modified through removal of the sgRNA scaffold region through NdeI/EcoRI digest and blunt ends generation using Large Klenow Fragment (NEB). 2A-puro was replaced with 2A-BsdR by PCR using the NheI/MluI sites. Each of the 10 human Frizzled cysteine rich domains (CRDs) were cloned into the lentiviral expression plasmid pLenti-puro in the following cassette: FZD_CRD-MYC-GPI.
# (§3) To confirm that the FZD5-WNT7B circuit is not driven simply by expression and rule out the possibility of a disconnect between RNA and protein levels for the Wnt receptors in HPAF-II cells, a panel of recombinant Fabs were generated, alternatively referred to herein as ‘Frizzled profiler’, that can detect and discriminate all but one of the ten Frizzled receptors. […] To characterize the binding specificity of these Fabs on cells, a panel of 10 CHO cell lines was generated, each expressing the CRD domain of a different myc-tagged Frizzled family member anchored at the plasma membrane through a GPI anchor (CHO-myc-FZDGPI). Despite the high sequence identity between Frizzled family members (FIG. 7A, FIG. 7B), selective Fabs were identified for FZD4, FZD5, FZD6 and FZD10 as assessed by immunofluorescence and flow cytometry (FIG. 7D and FIG. 8). […] The FZD8 CRD is most homologous to that of FZD5 (FIG. 7B). These Fabs can be used to discriminate expression of FZD1, FZD2, FZD4, FZD5, FZD6, FZD7, FZD8, FZD9 and FZD10 (FIG. 7D and FIG. 8). The ‘Frizzled profiler’ therefore consists of 10 different Fabs that can be used to discriminate expression of 9 different Frizzled family members. The Frizzled profiler was then used to confirm that HPAF-II cells express FZD1, FZD5, FZD6 and possibly FZD8 (FIG. 7E).
# (§4) The binding of anti-FZD5 Fabs to cell surface-expressed Frizzled protein was further determined for each member of the Frizzled family via flow cytometry and immunofluorescence analysis of a panel of 10 CHO cell lines, each ectopically over-expressing the extracellular cysteine-rich domain (CRD) of a different Frizzled protein family member.
# FZD5 CRD = molecular target: T1, FZD5 CRD; experiment: as above; parameters: key: −: no binding; +: very weak binder; ++: weak binder; +++: good binder; ++++: very good binder
# Description: as §2, §3, §4
# FZD6 CRD = molecular target: T2, FZD6 CRD; experiment: as above; parameters: key: −: no binding; +: very weak binder; ++: weak binder; +++: good binder; ++++: very good binder
# Description: as §2, §3, §4
# FZD3 CRD = molecular target: T3, FZD3 CRD; experiment: as above; parameters: key: −: no binding; +: very weak binder; ++: weak binder; +++: good binder; ++++: very good binder
# Description: as §2, §3, §4
# FZD4 CRD = molecular target: T4, FZD4 CRD; experiment: as above; parameters: key: −: no binding; +: very weak binder; ++: weak binder; +++: good binder; ++++: very good binder
# Description: as §2, §3, §4
Molecule,"percent growth inhibition, RWP1 10 μg/ml (RWP1 cells [1])","percent growth inhibition, PATU8988s 10 μg/ml (PATU8988S cells)","percent growth inhibition, HPAFII 2 μg/ml (HPAFII cells)","percent growth inhibition, HPAFII 10 μg/ml (HPAFII cells)","percent growth inhibition, ASPC-1 10 μg/ml (ASPC-1 cells [2])","percent growth inhibition, RWP1 2 μg/ml (RWP1 cells [3])","percent growth inhibition, ASPC-1 2 μg/ml (ASPC-1 cells [4])","Immunofluorescence binding, Frizzled CRD overexpressed on CHO cells: FZD1 (FZD1 CRD)","Immunofluorescence binding, Frizzled CRD overexpressed on CHO cells: FZD5 (FZD5 CRD)","Immunofluorescence binding, Frizzled CRD overexpressed on CHO cells: FZD6 (FZD6 CRD)","Immunofluorescence binding, Frizzled CRD overexpressed on CHO cells: FZD3 (FZD3 CRD)","Immunofluorescence binding, Frizzled CRD overexpressed on CHO cells: FZD4 (FZD4 CRD)"
B1,26.93%,0.97%,15.80%,21.87%,25.15%,21.46%,11.14%,++++,+++,−,−,−
B2,47.83%,−3.10%,36.18%,55.71%,33.63%,37.95%,37.97%,+++,+++,−,−,−
B3,41.10%,−46.23%,0.41%,−12.83%,−10.34%,62.88%,−14.51%,,+,−,−,−
